In PMC2903388 one finds KD, high-affinity site, KD, low-affinity sites and N, high-affinity site (MMP-1(E200A) per collagen triple helix) data, which are given here for 1 substance.

In assay [1] the target is Mouse tail tendon type I collagen heterotrimer α1(I)2α2(I) (mouse) (UniProt P11087). Briefly: equilibrium microdialysis.
Assay [2] addresses Mouse tail tendon type I collagen homotrimer α1(I)3 (mouse) (UniProt P11087). As to the kind of experiment: equilibrium microdialysis.

Sequence of Mouse tail tendon type I collagen heterotrimer α1(I)2α2(I) (mouse) (P11087 152-1207, chain 1 of 2): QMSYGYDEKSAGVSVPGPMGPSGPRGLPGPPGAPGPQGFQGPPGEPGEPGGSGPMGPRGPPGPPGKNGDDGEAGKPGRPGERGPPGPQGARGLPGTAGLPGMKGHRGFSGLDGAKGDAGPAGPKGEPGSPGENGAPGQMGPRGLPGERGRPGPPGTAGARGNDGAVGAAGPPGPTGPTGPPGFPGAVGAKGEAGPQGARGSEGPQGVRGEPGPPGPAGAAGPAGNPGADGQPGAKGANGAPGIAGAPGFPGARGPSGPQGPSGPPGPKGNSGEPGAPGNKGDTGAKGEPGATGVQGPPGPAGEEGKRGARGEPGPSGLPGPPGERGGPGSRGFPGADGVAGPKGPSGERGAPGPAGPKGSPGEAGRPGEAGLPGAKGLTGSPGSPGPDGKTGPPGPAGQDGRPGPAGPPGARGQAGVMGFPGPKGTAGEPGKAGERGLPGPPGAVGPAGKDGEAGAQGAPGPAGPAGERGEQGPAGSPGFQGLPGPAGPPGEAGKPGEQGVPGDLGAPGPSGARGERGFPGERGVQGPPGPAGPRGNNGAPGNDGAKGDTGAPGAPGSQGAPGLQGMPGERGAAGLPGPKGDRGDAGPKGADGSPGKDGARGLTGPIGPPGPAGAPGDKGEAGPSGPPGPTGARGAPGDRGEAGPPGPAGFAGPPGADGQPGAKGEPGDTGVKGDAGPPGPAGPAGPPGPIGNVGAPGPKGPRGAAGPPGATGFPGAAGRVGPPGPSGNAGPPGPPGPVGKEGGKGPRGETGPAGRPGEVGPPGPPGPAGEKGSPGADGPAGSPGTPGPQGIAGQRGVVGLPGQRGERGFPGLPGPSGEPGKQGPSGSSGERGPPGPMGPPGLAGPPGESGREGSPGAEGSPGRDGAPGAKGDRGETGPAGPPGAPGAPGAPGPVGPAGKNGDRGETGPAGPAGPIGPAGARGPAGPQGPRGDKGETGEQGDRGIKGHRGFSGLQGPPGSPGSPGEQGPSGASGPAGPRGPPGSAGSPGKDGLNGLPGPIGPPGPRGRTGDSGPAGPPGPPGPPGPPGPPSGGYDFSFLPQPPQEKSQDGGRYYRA
Sequence of Mouse tail tendon type I collagen heterotrimer α1(I)2α2(I) (mouse) (Q01149 86-1125, chain 2 of 2, further chain): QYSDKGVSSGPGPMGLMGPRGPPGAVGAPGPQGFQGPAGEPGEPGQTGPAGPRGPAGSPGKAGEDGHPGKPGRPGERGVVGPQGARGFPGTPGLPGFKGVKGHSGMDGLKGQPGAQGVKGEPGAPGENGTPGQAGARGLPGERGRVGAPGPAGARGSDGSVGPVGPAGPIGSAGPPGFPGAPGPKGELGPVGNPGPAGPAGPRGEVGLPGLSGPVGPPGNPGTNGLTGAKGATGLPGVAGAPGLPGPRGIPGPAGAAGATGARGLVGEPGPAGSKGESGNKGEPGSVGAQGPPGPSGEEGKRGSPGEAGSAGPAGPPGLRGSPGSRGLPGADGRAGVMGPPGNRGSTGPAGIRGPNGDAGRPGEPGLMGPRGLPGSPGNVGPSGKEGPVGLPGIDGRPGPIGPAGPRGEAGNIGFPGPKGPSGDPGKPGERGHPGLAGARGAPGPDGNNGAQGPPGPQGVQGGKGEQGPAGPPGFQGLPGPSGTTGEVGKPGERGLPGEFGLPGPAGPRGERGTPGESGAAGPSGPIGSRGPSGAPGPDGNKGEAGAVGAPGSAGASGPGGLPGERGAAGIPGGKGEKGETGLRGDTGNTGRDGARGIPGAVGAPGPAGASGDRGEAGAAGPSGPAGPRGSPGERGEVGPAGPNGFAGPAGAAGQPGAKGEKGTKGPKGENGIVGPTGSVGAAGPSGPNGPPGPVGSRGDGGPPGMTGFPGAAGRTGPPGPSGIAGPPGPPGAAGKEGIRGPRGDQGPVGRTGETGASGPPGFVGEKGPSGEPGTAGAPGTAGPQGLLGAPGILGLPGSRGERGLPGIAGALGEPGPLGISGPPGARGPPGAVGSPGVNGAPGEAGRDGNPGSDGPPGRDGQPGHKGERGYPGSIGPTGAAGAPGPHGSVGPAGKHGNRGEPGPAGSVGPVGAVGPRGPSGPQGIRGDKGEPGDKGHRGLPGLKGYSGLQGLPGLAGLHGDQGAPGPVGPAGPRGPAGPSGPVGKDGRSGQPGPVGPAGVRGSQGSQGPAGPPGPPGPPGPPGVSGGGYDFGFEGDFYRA
Sequence of Mouse tail tendon type I collagen homotrimer α1(I)3 (mouse) (P11087 152-1207): as the sequence (P11087 152-1207, chain 1 of 2) above

In assay [1], “MMP-1(E200A), activated recombinant human fibroblast collagenase with Glu-200 substituted with Ala (enzyme)” registered a KD, high-affinity site of 1300 nM; a KD, low-affinity sites greater than 50000 nM; a N, high-affinity site (MMP-1(E200A) per collagen triple helix) of 1. In assay [2], this substance showed a KD, high-affinity site of 1300 nM; a KD, low-affinity sites greater than 50000 nM; a N, high-affinity site (MMP-1(E200A) per collagen triple helix) of 1.
